Measurements taken from publication PMC10991935.

Test system: PsPIWI-RE (Pseudomonas stutzeri DSM 4166)
Experiment: fluorescence polarization
Conditions: 5' phosphate; FP: 20 mM Tris-HCl pH 7.5, 250 mM NaCl, 5 mM MgCl2, 5 nM oligo, 37 C, 30 min; EMSA: 20 mM Tris-HCl pH 8.0, 150 mM NaCl, 2 mM DTT, 5 mM MgCl2, 1 uM oligo, 1-3 uM

Row | Sequence | Kd
1 | UGAGGUAGUAGGUUGUAUAGU [5'P-RNA (5'U) 21-nt guide] | 64.4 nM
2 | TGAGGTAGTAGGTTGTATAGT [5'P-DNA (5'T) 21-nt guide] | 24.6 nM

Same assay, conditions: FP: 20 mM Tris-HCl pH 7.5, 250 mM NaCl, 5 mM MgCl2, 5 nM oligo, 37 C, 30 min; EMSA: 20 mM Tris-HCl pH 8.0, 150 mM NaCl, 2 mM DTT, 5 mM MgCl2, 1 uM oligo, 1-3 uM

Row | Sequence | Kd
3 | UGAGGUAGUAGGUUGUAUAGU [5'OH-RNA (5'U) 21-nt guide] | 86.5 nM
4 | AGAGGUAGUAGGUUGUAUAGU [5'OH-RNA (5'A) 21-nt guide] | 88.4 nM
5 | GGAGGUAGUAGGUUGUAUAGU [5'OH-RNA (5'G) 21-nt guide] | 86.7 nM
6 | CGAGGUAGUAGGUUGUAUAGU [5'OH-RNA (5'C) 21-nt guide] | 152 nM
7 | TGAGGTAGTAGGTTGTATAGT [5'OH-DNA (5'T) 21-nt guide] | 19.7 nM
